Measurements: the nanobody polyreactivity screen of Harvey et al. (2022)

Assay: yeast display, Sf9 membrane polyspecificity reagent, FACS + sequencing; frameworks hold sequencing errors
Outline: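 Synthetic nanobody libraries on Saccharomyces cerevisiae BJ5465 were galactose-induced for 36–48 hours, stained 1 hour at 4 °C with 10% biotinylated, detergent-solubilized Sf9 membrane reagent and enriched on streptavidin microbeads. FACS then separated cells into low and high (top ~1%) gates by anti-HA (expression) and streptavidin (reagent binding) fluorescence. Genes were colony-PCR amplified, MiSeq 2 × 250 sequenced and CDR-length filtered. A clone's polyreactivity label is that of its gate of origin.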

Sequence | polyreactivity (PSR sort gate)
QVQLVESGAGLVQAGGSLRISCAASGRIFYVYAMGWYRQAPGKEREFVASISWSGGSTYYADSVKGRFTISRDNANNTVLLQMNSLKPADTAVYYCNARAFTQRYDYWGQGTQVTVSS | low polyreactivity
QVQLVESGAGLVQAGGSLRISCAASGSIFTNAMGWYRQAPGKERELVAAISSSGGSTYYADSVKGRFTISRDNANNTVYLQMNSLKPEDTAVYYCAADHYGGRDYWGQGTQVTVSS | low polyreactivity
QVQLVESGAGLVQAGGSLRISCAASVITFIPYAMGWYRQAPGKERELLASISDGGGTNYADSVKGRFTISRDNAKNTVYLQMNSLKTEDTAVYYCATDASTYAYYGGYYWGHGTQVTVSS | low polyreactivity
QVQLVESGAGLVQAGGSLRLICAASGRTFYPNAMGWYRQAPGKERELVAAITYSGTRTYYADSVKGRFTISRDNAKNTVYLQMNSLKPEDTAVYYCAAVVGKIGFNYWGQGTQVTVSS | high polyreactivity
QVQLVESGAGLVQAGGSLRLSCAASGFIFLAYTMGWSRQGPAKERELVAAISTSGGSTYYADSVKGRFTISRDKAKNTVYLEMNSLKPEDTGVYYCAADYSYWRGYDSWGQGTQVTVSS | high polyreactivity
QVQLVESGAGLVQAGGSLRLSCAASGFIFYIYAMGWYRQAPGKEREFVAVISSSGGITYYADSVKGRFTISRDNAKNTFYLQMNSLKPEDTAVYYCARDTEGKYVGYGRGGYWGQGTQVTVSS | low polyreactivity
QVQLVESGAGLVQAGGSLRLSCAASGFTFPVYAMGWNRQAPGKERELVAAISWSGGGTYYADSVKGRFTISRDIAKNTVYLQMNSLNPEDTAVHYCAARWYYYPLMYDYWGQGTQVTVSS | low polyreactivity
QVQLVESGAGLVQAGGSLRLSCAASGGTFWKYAMGWYRQAPGKESELVAAITWSGSSTYYADSVKGRFTISRDNAKNTVFLLMKSLKPEDTAVYYCARYHVGPSYRYGYWGQGTQVTVSS | high polyreactivity
QVQLVESGAGLVQAGGSLRLSCAASGIIFPFYAMGWYRQAPGKEMELVAAITSDGNTNYADSVKGRFTFSRDNAKNTVYLQMNSLKPVDTAVYYCNAETQYAVLSWHSTRHDYWGQGTQVTLSS | low polyreactivity
QVQLVESGAGLVQAGGSLRLSCAASGRIFHWYAMGWYRQAPGKERELVATANTSYADSVKGRFTISRDNAKNTVYLQMNSLKPEDTAVYYCATVGPRGRSLGDYWGQVTQVTVSS | low polyreactivity
QVQLVESGAGLVQAGGSLRLSCAASGRILIIYAMGWYRQAPGKERELVARITYTGGRTYYADSVKGRFTISRDNAKNTVYRQMNSLKPDDTAVYYCATDWSRSDSYSHYDSWVQGTQVTVSS | low polyreactivity
QVQLVESGAGLVQAGGSLRLSCAASGRNFQYYAMVWYRQAPGKERELVAAISSGGGTYYADSVKGRFTISRDNAKNTVYLQMNSLKPEDTAVYYCAARYVYHRGFDYWGQGTQVTVSS | high polyreactivity
QVQLVESGAGLVQAGGSLRLSCAASGRTFNFYTMGWYRQAPGKERELVAAIDASGGRTYYADSVKGRFTISRDNAKNTVYLQMNSLKPEDTAVYYCAKYPRYSYVGYGYWGQGTQVTVSS | high polyreactivity
QVQLVESGAGLVQAGGSLRLSCAASGSIFGFYAMGWYRQAPGKERELVASISSSGDSTYYADSVKGRFTISRDNAKYTVYLPMNSLKPEDTAVYYCAAVVYDIYGYEFDYWGLGTQVTVSS | low polyreactivity
QVQLVESGAGLVQAGGSLRLSCAASGSIFGPNAMGWYRQAPGKERELVAAISWSGASTYYADSVKGRFTISRDNAMNTVYLQMNSLKPEDTAVYYCAADYYGVSGSGYGYWGQGTQVTVSS | low polyreactivity
QVQLVESGAGLVQAGGSLRLSCAASGSIFKYNTMGWYRQAPGKERELVATISGGGRTYYADSVKGRFTISRDNAKNTVYLQMNSLKPEDTAVYYCAARKRGTFTYDYWGQGTQVTVSS | high polyreactivity
QVQLVESGAGLVQAGGSLRLSCAASGSIFSYYVMGWYRQAPGKERELVAAISYSGGRTYYADSVKGSFTISRDNAKYTVYLQMNSLKPEDTAVYFCAASRRVGEVSYYYWGQGTQVTVSS | high polyreactivity
QVQLVESGAGLVQAGGSLRLSCAASGSIFVQYAMGWSRQAPRNERELVAGISSIGGSTYYADSVKGRFTLSRDNSKNSVYLQMNSLKPEDTAVYYCAKRWRSSYRIGHDYWRQGTQVTVSS | low polyreactivity
QVQLVESGAGLVQAGGSLRLSCAASGSIFWWNALGWYRQAPGKQRELVAAINWSTGRTYYADSVKGRFTISRDNAKNTVYLQMISLKPEDTAVYYCAACFVGDLGYEYWGQGTQVTVSS | low polyreactivity
QVQLVESGAGLVQAGGSLRLSCAASGSILTAYAMGWYRQAPVKERELVAAISRGDITKYADSVKGRFTISRDNAKNTVYLQMNSLQPEDTAVYYCAARVPRYSDSTRGRADYYWGQVTQVTVSS | high polyreactivity
QVQLVESGAGLVQAGGSLRLSCAASGSTFSRYAMGWYRQAPGKERELVAAISRRGGSTYYSDSVKGRFTISRDNSKNTVYLQKISLKPEDTAVYYCAADPQPSSDRGTYDYWGQGTQVSVSS | high polyreactivity
QVQLVESGAGLVQAGGSLRLSCAASGSTLVFYTMGWYRQAPGKERELVAAISYSGGRTYYADSVKGRFTISRDNAKNTVYLQMNSLKPEDTAVYYCAAVGRSYNRISQYDYWGQGTQVTVSS | high polyreactivity

Sequence | polyreactivity (PSR sort gate)
QVQLVESGAGLVQAGGSLRLSCAASGTIFSGNAMGWYRQAPGKESELVAAISRSGGSTYYADSVKGRFTISRDNAKNTVSLQKNSLKPEDTAVYYCAAYRTHGPPRAIRFDYWGQGSQVTVSS | high polyreactivity
QVQLVESGAGLVQAGGSLRLSCAAYGLIFTYNAMGWYRQAPWKERKLVARITSGGNTNYADSVKGRFTISRDYAKNTVYLQMNSLKPEDTAVYYCATCLYWFTNRYGYWGQGTQVTVSS | low polyreactivity
QVQLVESGAGLVQAGGSLRLSCAPSGITFVGNAMGWSRPAPGKERELVAGIRGNGGSTYYADSVKGRFTISRDNAKNTVYFQMNSLKPEDTAVYYSAAAAYYADFDYWGLGTQVTVSS | low polyreactivity
QVQLVESGAGLVQAGGSLRLSCATYGITISYYAMVWYGQGPGKVSELVAAISTSGGSTYYADSVKGRFTFSRDNAKNTVYLQMNSLKPEDTAVFYCAAVYTTGGYTGLEYWGQGTQVTVSS | high polyreactivity
QVQLVESGAGLVQAGGSLRLTCAASGFIFRDYAMGGYRQAPGKDRELVAAISSGDSTNYADSVKGRFTISRDNAKNTVYLLMNSLKPEDTAVYYCAADQVQYTGYTEYDWGQGTQVTVSS | low polyreactivity
QVQLVESGAGLVQAGGSLRLTCAASGFIFRRNAMGWYRQAPGKERELVAAITTGGRTNYADSVKGRFTISRDNAKNTVYLQMNSLKPEDTPVYYCYAPVLDVIDVFYYARILFGYWGQGTQVTVSS | low polyreactivity
QVQLVESGAGLVQAGGSLRLTCAASGSTFYRYAMGWYREAPGKERELVAAINTGGSTNYADSVKGRFTISRDNAKNTVYLQMYSMKPEDTAVYYCAARFQYYRKYDYWGQGTQVTVSS | low polyreactivity
QVQLVESGAGLVQAGGSLRSSCAASGSTFSGNAMGLYRQAPGKERELVAAISGRGGSTYYADSVKGRFTISRDNAKNSVYLQMNSLKPEDTAVYYCAKRRNTRGAYGYWGQGTQVTVSS | high polyreactivity
QVQLVESGAGLVQAGGSLRVSCAASGSIFGKNAMGWYRQAPGKERELVAAITSSGGSTYYADSVKGRFTISRDNAKNTVYLQMNSLKPEDTAVYYCAARPWIWARAGYYWGQGTQVTVSS | high polyreactivity
QVQLVESGAGLVQAGGSRRLSCAASGSIFYRYTMGWYRQAPGKERELVAGITFGAGTYYADSVKGRFTISRDNAKNTVYLQMNSLKPEDTAVYYCNAIHLPRNRDYWGQGTQVTVSS | low polyreactivity
QVQLVESGAGLVQAGVSLRLSCAASGRIFYYYTMGWYRHAPGKERELVASITIGDSTYYADSVKGRFTISRDNAKNTVYLQMNSLKPEDTAVYYCAAVKTVDVGYDYWGQGTQVTVSS | low polyreactivity
QVQLVESGAGLVQARGSLRLSCAASGRIFYQYAMGWYRQAPGKERELVAAISWNGGRTYYADSVKGRFTISRDNAKNTVYLQMNSLKPEDTAVYYCAASFTGYSRDRYGYWGQGTQVTVSS | high polyreactivity
QVQLVESGAGLVQDGGSLRLICAASGRTFTPYAMGRYRQAPGKEMEFVAAISIVGRTKYADSVKGRFTISRDNAKNTVYLQMNSLKPEDTEVYYCNAQDSRDRKFYWGYTRGHWGQGTQVTVSS | low polyreactivity
QVQLVESGAPLVQAGGSLRLSCAASGSTFERYVMGWYRQRLGNKGSWLPVLNHNGGSTYYADSVKGRFTISRDNAKNTVYLQMNSLKPEDTAVYYCAASFRTVLDYGYWGQGTQVTVSS | low polyreactivity
QVQLVESGARLVQAGGSLRLSCAASGSILGGNAMGWYRQPPGKERELVAAITFSGGGTYYADSVKGRFTISRDNAKNTVYLQMNSLKPEDTAVYYCAADIAGYTYEFDYWGQGTQLTVSS | low polyreactivity
QVQLVESGEGLVQAGGSLRLSCAASGSIFSLNAMGWYRQAPGKERELVAAISGRGGSTYYADSVKGRFTISRDNAKNTVYLQMNSLKPEDTAVYYCAARFSRTFLGYYYWGQGTQVTVSS | high polyreactivity
QVQLVESGGAIVQAGRSLRLSCAASGNIFESYGMGWYRQAPGKERELVATINTSSGSTYYADSVKGRFTISRDNAKYTVYLQMNRLKPEDTAVYYCAVRPKTSWYSWYYLGQGTQVTVSS | low polyreactivity
QVQLVESGGAKVQAGGSLRLSCAASGRTFDYYVMGWNRQAPVKEREFVAAITWSGDSTYYADSVKGRFTISRENAKNTVYLQMNSLKPEDTAVYYCNADYYPTTFYAFVYMYDYWGQGTQVTVSS | low polyreactivity
QVQLVESGGALDQAGGSLRLICAASGRIFWYNAMGWYRQAPGKERELVAGIRSGGSTNYADSVKGRFTISRDNAKNPVYLQMNSLKPEDTAVYYCAARRWRTQDRSHFYYWGQGTQVTVSS | low polyreactivity
QVQLVESGGALDQAGGSLRLSCAASGFFRYAMGSYRQAPGKERELVAAITSGGRTNYADSVKGRFTISRDNAKNTVYLQMNSLKPEDTAVYNCAADQGSRSEELDYWGQGTQVTVSS | low polyreactivity
QVQLVESGGALDQAGGSLRLSCAASGSTFVVNAMGWYIQAPGKERELVAGITTSGGSTYYADSVKGRFTISRDNAKTTVYLQMNSLKPEDTAVYYCAARRWPYVYRFRAYSGFDYWGQGTHVTVSS | low polyreactivity
